Measured values reported in patent US20200370050A1 (published 2020).

Assays:
FLAG-CRAFΔN (193-648) = biological target: T1, FLAG-CRAFΔN (193-648) (human, UniProt P04049 193-648); experiment: co-immunoprecipitation from M7609 cell lysate on anti-FLAG M2 magnetic beads, Western blot with anti-GSTP1
T1 construct: Expressed in M7609 cells from a pCMV6-Entry vector; also called CRAF protein with a deletion at the N-terminal moiety; not shown: FLAG tag at the C-terminus (plasmid pCMV6-Myc-DDK-CRAFΔN)
Protocol: (§1) The transfected cells were used for coimmunoprecipitation. The cells were lysed by incubation in 0.5% NP-40 lysis buffer (0.5% NP-40, 20 mM HEPES pH 7.4, 150 mM NaCl, 1 mM MgCl₂, 1 mM EGTA, 10% glycerol, Complete, Mini (Roche Diagnostics) and PhosSTOP (Roche Diagnostics)) on ice for 30 min. Centrifugation was performed to give a supernatant as a cell lysate. The cell lysates obtained from the samples and containing the same amount of protein were each incubated with anti-FLAG M2 magnetic beads (Sigma-Aldrich) at 4° C. for 2 h to overnight, so that each FLAG-tagged protein was attached to the beads. The beads were washed four times with 0.5% NP-40 lysis buffer.
(§2) Each sample for western blotting was prepared from the beads obtained after the coimmunoprecipitation, and then subjected to SDS-PAGE for protein separation. The separated protein was transferred to a PVDF membrane. The membrane was incubated with a primary antibody solution and then washed. The primary antibody used was an anti-GSTP1 antibody (Medical & Biological Laboratories Co., Ltd.), an anti-FLAG antibody (F3165, Sigma-Aldrich), or an anti-GAPDH antibody (Abcam plc.). The membrane was then incubated with a secondary antibody (goat secondary antibody to rabbit or mouse IgG) solution and then washed. The signal on the membrane was visualized using ECL or ECL prime Western blotting detection system (GE Healthcare). […]

FLAG-BRAF (1-766) = biological target: T2, FLAG-BRAF (1-766) (Homo sapiens (Human), UniProt P15056 1-766); experiment: as above
T2 construct: Expressed in M7609 cells from plasmid pCV6-Myc-DDK-BRAF (OriGene Technologies); also called full-length BRAF protein; BRAF with the extension; not shown: FLAG tag (DDK tag) at the C-terminus
T2 sequence (P15056 whole entry): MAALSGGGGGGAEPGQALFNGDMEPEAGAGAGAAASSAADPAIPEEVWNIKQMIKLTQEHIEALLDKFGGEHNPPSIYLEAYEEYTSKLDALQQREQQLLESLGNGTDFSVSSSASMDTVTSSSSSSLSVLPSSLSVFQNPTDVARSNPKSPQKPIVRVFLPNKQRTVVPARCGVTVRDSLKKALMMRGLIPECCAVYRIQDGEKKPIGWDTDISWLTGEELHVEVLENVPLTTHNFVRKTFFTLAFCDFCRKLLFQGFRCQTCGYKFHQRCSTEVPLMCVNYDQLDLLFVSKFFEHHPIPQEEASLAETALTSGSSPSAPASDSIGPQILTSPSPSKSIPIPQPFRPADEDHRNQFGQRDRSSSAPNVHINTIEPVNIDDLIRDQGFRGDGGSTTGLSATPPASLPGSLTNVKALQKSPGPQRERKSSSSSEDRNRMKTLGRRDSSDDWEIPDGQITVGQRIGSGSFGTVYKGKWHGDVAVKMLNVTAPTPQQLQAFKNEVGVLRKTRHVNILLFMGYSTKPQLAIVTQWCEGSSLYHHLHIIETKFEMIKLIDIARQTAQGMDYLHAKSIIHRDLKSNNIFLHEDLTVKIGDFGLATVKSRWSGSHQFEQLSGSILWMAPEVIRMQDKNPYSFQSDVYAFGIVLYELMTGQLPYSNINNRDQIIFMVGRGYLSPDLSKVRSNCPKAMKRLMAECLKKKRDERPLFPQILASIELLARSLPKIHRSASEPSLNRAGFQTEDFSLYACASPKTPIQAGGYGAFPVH
Protocol: as §1, §2

B1: GSTP1 (endogenous, in lysates of KRAS mutation-positive colon cancer cells) (enzyme)
chain: PPYTVVYFPVRGRCAALRMLLADQGQSWKEEVVTVETWQEGSLKASCLYGQLPKFQDGDLTLYQSNTILRHLGRTLGLYGKDQQEAALVDMVNDGVEDLRCKYISLIYTNYEAGKDDYVKALPGQLKPFETLLSQNQGGKTFIVGDQISFADYNLLDLLLIHEVLAPGCLDAFPLLSAYVGRLSARPKLKAFLASPEYVNLPINGNGKQ
notes: also called glutathione S-transferase pi; endogenous GSTP1
binding result (FLAG-CRAFΔN (193-648)): no binding | binding result (FLAG-BRAF (1-766)): no binding
